Reference: article PMC2583361

Target: SSB C-terminal peptide (SSB-Ct peptide) (E. coli)
Assay: ITC

PriA DNA helicase, sequence (P17888 whole entry): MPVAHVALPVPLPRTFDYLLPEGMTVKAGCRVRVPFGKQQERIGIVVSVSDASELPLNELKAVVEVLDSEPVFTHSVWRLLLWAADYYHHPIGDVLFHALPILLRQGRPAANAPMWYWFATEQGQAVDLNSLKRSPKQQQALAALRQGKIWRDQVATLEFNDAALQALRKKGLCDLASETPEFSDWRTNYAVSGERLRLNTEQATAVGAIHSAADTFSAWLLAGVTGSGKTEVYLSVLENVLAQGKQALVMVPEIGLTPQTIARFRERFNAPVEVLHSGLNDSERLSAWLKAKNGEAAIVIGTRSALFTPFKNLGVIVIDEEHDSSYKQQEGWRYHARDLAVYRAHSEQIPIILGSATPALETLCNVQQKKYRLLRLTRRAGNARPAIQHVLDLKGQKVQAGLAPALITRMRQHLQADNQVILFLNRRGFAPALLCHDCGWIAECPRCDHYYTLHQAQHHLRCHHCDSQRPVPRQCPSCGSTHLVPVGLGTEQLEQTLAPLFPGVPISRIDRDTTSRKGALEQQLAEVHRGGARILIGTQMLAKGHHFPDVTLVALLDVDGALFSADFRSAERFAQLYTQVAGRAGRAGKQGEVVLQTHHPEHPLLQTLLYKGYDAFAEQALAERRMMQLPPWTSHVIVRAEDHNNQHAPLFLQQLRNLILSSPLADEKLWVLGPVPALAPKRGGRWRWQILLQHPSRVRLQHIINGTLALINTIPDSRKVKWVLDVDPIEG
χ subunit of the DNA polymerase III holoenzyme, sequence (P28905 whole entry): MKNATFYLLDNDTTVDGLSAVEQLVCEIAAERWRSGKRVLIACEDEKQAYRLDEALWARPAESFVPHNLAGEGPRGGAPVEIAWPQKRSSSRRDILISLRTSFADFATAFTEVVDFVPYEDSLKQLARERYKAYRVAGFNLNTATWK

Ka [M⁻¹]	dH [kcal/mol]	Substance
1.8e+06	-6.9	PriA DNA helicase (from UniProt P17888 1-732) (enzyme)
–	-8.6	χ subunit of the DNA polymerase III holoenzyme (from UniProt P28905 1-147) (natural protein)
